Measured values published in PMC13334617 (Advanced Science, 2026).

Molecular target: wild-type AC fused to GFP (AC-GFP), encoded by plasmid pAC0-Gfp (GFP: Aequorea victoria (variant not …, UniProt P42212 = GFP))
Test: two-hybrid
Details: partners not purified

B1: CaM fused to the V9A nanobody at its N-terminus and a tetra-cysteine tag at its C-terminus (CaM-V9A), encoded by plasmid pTCam-V9A (VHH)
VHH: DVQLQESGGGSVQAGGSLRLSCAASGDTFSSYSMAWFRQAPGKECELVSNILRDGTTTYAGSVKGRFTISRDDAKNTVYLQMVNLKSEDTARYYCAADSGTQLGYVGAVGLSCLDYVMDYWGKGTQVTVSS
notes: source: E. coli DHM1, expressed in cells from plasmid pTCam-V9A (high expression); not shown: tetra-cysteine tag, C-terminal, kept
- cAMP: > 250 nmol/mg
- ß gal (Rel. Units): 107 Rel. Units
